Reference: patent US20070265206A1 (PALATIN TECHNOLOGIES, published 2007)
Bridge positions count the residues as written; N and C are the ends.

Key:
[1] = biological target: T1, human natriuretic peptide receptor A (NPRA) (human, UniProt P16066 33-1061); experiment: competitive inhibition of [125I]-ANP binding to HEK-hNPRA membrane homogenates
T1 construct: whole, on cells; In the cGMP assay it stood on whole HEK-hNPRA cells; also called hNPRA; hNPR-A
T1 sequence (looked up): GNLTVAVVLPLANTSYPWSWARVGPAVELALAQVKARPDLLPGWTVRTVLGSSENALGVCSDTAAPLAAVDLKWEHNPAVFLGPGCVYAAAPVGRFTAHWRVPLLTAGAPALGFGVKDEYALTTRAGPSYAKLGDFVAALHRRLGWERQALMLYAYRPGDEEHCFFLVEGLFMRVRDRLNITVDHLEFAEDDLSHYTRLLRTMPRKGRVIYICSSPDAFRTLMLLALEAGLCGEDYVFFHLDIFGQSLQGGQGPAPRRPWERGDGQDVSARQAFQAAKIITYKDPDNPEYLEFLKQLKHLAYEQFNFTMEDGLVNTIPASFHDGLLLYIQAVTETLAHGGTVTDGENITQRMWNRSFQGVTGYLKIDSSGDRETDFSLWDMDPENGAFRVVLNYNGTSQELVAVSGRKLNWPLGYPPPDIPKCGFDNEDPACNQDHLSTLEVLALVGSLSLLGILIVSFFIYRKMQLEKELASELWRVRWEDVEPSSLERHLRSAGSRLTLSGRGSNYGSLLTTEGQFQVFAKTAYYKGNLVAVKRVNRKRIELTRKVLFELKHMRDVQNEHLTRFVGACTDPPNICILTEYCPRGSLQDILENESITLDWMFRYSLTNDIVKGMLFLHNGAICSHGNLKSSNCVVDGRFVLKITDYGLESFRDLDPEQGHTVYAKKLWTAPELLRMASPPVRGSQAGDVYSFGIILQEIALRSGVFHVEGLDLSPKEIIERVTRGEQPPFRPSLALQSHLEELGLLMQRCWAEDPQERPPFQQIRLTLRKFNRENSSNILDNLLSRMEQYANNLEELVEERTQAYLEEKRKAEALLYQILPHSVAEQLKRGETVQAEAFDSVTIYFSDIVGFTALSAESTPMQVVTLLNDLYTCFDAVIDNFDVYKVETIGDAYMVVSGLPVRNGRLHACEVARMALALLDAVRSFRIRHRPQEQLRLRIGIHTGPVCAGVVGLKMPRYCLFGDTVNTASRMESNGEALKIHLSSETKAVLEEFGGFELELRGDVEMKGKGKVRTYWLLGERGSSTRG
Procedure: Competitive binding assay. A competitive inhibition binding assay was performed using crude membrane homogenates prepared from HEK-hNPRA cells. To prepare membrane homogenates, cells were rinsed with phosphate-buffered saline and incubated for 15 minutes at 4° C. in hypotonic lysis buffer (10 mM Tris, pH 7.4+5 mM EDTA). Cells were transferred from plates to polypropylene tubes and homogenized. Homogenates were centrifuged at 25,000×g for 20 minutes. Pellets were resuspended in buffer consisting of 50 mM Tris (pH 7.4) and 1 mM EDTA, homogenized and centrifuged at 25,000×g for 20 minutes. […] On the day of an assay, homogenates were thawed and homogenized. […] Assays were stopped by addition of cold wash buffer (phosphate-buffered saline) followed by filtration using a vacuum manifold. Bound radioactivity was determined using a gamma counter. […] Data were analyzed using GraphPad Prism® curve-fitting software.

[2] = biological target: T1, human natriuretic peptide receptor A …; experiment: cell-based or functional assay

Ki [1]: 0.6 nM
EC50 (accumulation of intracellular cGMP) [2]: 3.3 nM
B1: mini-ANP, H-Met-cyclo(Cys-His-Phe-Gly-Gly-Arg-Met-Asp-Arg-Ile-Ser-Cys)-Tyr-Arg-NH2 (peptide)
peptide: H-MCHFGGRMDRISCYR-NH2
modifications: disulfide 2-13
SMILES: CC[C@H](C)[C@@H]1NC(=O)[C@H](CCCNC(=N)N)NC(=O)[C@H](CC(=O)O)NC(=O)[C@H](CCSC)NC(=O)[C@H](CCCNC(=N)N)NC(=O)CNC(=O)CNC(=O)[C@H](Cc2ccccc2)NC(=O)[C@H](Cc2c[nH]cn2)NC(=O)[C@@H](NC(=O)[C@@H](N)CCSC)CSSC[C@@H](C(=O)N[C@@H](Cc2ccc(O)cc2)C(=O)N[C@@H](CCCNC(=N)N)C(N)=O)NC(=O)[C@H](CO)NC1=O
notes: also called 15-mer disulfide cyclic peptide
